Data reported in US20250136721A1 (GlaxoSmithKline, published 2025).
Where two headings read alike, the source gives them in different places.

What was measured:
[1] = target: pre-existing anti-VH ADA in human serum; test: ADA confirmation assay (MSD): 10 ug/mL test material against labelled DOM1H-131-206, mean of 10 sera
[2] = target: pre-existing anti-VH ADA in human serum; test: ADA confirmation assay (MSD): 10 ug/mL test material against labelled DOM1H-131-206; share of 10 ADA-positive sera with binding
[3] = target: pre-existing anti-VH ADA in human serum; test: ADA confirmation assay (MSD): 10 ug/mL test material against labelled DOM1H-131-206, mean of 10 sera; remark: listed apart in the source
[4] = target: pre-existing anti-VH ADA in human serum; test: ADA confirmation assay (MSD): 10 ug/mL test material against labelled DOM1H-131-206; share of 10 ADA-positive sera with binding; remark: listed apart in the source

Binder | Mean % inhibition of signal in confirmation assay [1] [%] | % subjects with ADA binding (10 subjects) (% of subjects) [2] | Mean % inhibition of signal in confirmation assay [3] [%] | % subjects with ADA binding (10 subjects) (% of subjects) [4]
DOM1H-131-206 C-terminal ASTK (protein) VH: EVQLLESGGGLVQPGGSLRLSCAASGFTFAHETMVWVRQAPGKGLEWVSHIPPDGQDPFYADSVKGRFTISRDNSKNTLYLQMNSLRAEDTAVYHCALLPKRGPWFDYWGQGTLVTVSSASTK | 19.6 | 40 |  | 
DOM1H-131-206 C-terminal S deletion (ΔS) (protein) VH: EVQLLESGGGLVQPGGSLRLSCAASGFTFAHETMVWVRQAPGKGLEWVSHIPPDGQDPFYADSVKGRFTISRDNSKNTLYLQMNSLRAEDTAVYHCALLPKRGPWFDYWGQGTLVTVS |  |  | 44.7 | 40
DOM1H-131-206 C-terminal AS (protein) VH: EVQLLESGGGLVQPGGSLRLSCAASGFTFAHETMVWVRQAPGKGLEWVSHIPPDGQDPFYADSVKGRFTISRDNSKNTLYLQMNSLRAEDTAVYHCALLPKRGPWFDYWGQGTLVTVSSAS | 16.3 |  |  | 
DOM1H-131-206 P14A + C-terminal A (protein) VH: EVQLLESGGGLVQAGGSLRLSCAASGFTFAHETMVWVRQAPGKGLEWVSHIPPDGQDPFYADSVKGRFTISRDNSKNTLYLQMNSLRAEDTAVYHCALLPKRGPWFDYWGQGTLVTVSSA |  |  | 8.76 | 
DOM1H-131-206 C-terminal ASTKG (protein) VH: EVQLLESGGGLVQPGGSLRLSCAASGFTFAHETMVWVRQAPGKGLEWVSHIPPDGQDPFYADSVKGRFTISRDNSKNTLYLQMNSLRAEDTAVYHCALLPKRGPWFDYWGQGTLVTVSSASTKG | 28.3 | 40 | 1.77 | 
DOM1H-131-206 P14A + C-terminal ASTKG (protein) VH: EVQLLESGGGLVQAGGSLRLSCAASGFTFAHETMVWVRQAPGKGLEWVSHIPPDGQDPFYADSVKGRFTISRDNSKNTLYLQMNSLRAEDTAVYHCALLPKRGPWFDYWGQGTLVTVSSASTKG |  |  | 11.9 | 
DOM1H-131-206 C-terminal AST (protein) VH: EVQLLESGGGLVQPGGSLRLSCAASGFTFAHETMVWVRQAPGKGLEWVSHIPPDGQDPFYADSVKGRFTISRDNSKNTLYLQMNSLRAEDTAVYHCALLPKRGPWFDYWGQGTLVTVSSAST | 26.4 | 50 | 35 | 20
DOM1H-131-206 L108Q (protein, name in Kabat numbering) VH: EVQLLESGGGLVQPGGSLRLSCAASGFTFAHETMVWVRQAPGKGLEWVSHIPPDGQDPFYADSVKGRFTISRDNSKNTLYLQMNSLRAEDTAVYHCALLPKRGPWFDYWGQGTQVTVSS | 90.9 | 100 |  | 
DOM1H-131-206 P14E (protein, name in Kabat numbering) VH: EVQLLESGGGLVQEGGSLRLSCAASGFTFAHETMVWVRQAPGKGLEWVSHIPPDGQDPFYADSVKGRFTISRDNSKNTLYLQMNSLRAEDTAVYHCALLPKRGPWFDYWGQGTLVTVSS |  |  | 47.2 | 60
DOM1H-131-206 L11A (protein, name in Kabat numbering) VH: EVQLLESGGGAVQPGGSLRLSCAASGFTFAHETMVWVRQAPGKGLEWVSHIPPDGQDPFYADSVKGRFTISRDNSKNTLYLQMNSLRAEDTAVYHCALLPKRGPWFDYWGQGTLVTVSS |  |  | 98 | 100
DOM1H-131-206 L108A (protein, name in Kabat numbering) VH: EVQLLESGGGLVQPGGSLRLSCAASGFTFAHETMVWVRQAPGKGLEWVSHIPPDGQDPFYADSVKGRFTISRDNSKNTLYLQMNSLRAEDTAVYHCALLPKRGPWFDYWGQGTAVTVSS |  |  | 94.3 | 100
DOM1H-131-206 P14A (protein) VH: EVQLLESGGGLVQAGGSLRLSCAASGFTFAHETMVWVRQAPGKGLEWVSHIPPDGQDPFYADSVKGRFTISRDNSKNTLYLQMNSLRAEDTAVYHCALLPKRGPWFDYWGQGTLVTVSS | 58.3 | 100 |  | 

Next, values leading:

Mean % inhibition of signal in confirmation assay [1] [%] | % subjects with ADA binding (10 subjects) (% of subjects) [2] | Mean % inhibition of signal in confirmation assay [3] [%] | % subjects with ADA binding (10 subjects) (% of subjects) [4] | Binder
11 |  |  |  | DT04-H-033 C-terminal AAA (protein) VH: EVQLLESGGGLVQPGGSLRLSCAASGFTFADYGMAWVRQAPGKGLEWVSTISYNGLYTYYADSVKGRTISRDNSKNTLYLQMNSLRAEDTAVYYCAKYEYSPESDFDYWGQGTLVTVSSAAA
14 |  |  |  | DT04-H-033 C-terminal AST (protein) VH: EVQLLESGGGLVQPGGSLRLSCAASGFTFADYGMAWVRQAPGKGLEWVSTISYNGLYTYYADSVKGRTISRDNSKNTLYLQMNSLRAEDTAVYYCAKYEYSPESDFDYWGQGTLVTVSSAST
8.26 |  |  |  | DT04-H-033 C-terminal AS (protein) VH: EVQLLESGGGLVQPGGSLRLSCAASGFTFADYGMAWVRQAPGKGLEWVSTISYNGLYTYYADSVKGRTISRDNSKNTLYLQMNSLRAEDTAVYYCAKYEYSPESDFDYWGQGTLVTVSSAS
12.5 |  |  |  | DT04-H-033 C-terminal A (protein) VH: EVQLLESGGGLVQPGGSLRLSCAASGFTFADYGMAWVRQAPGKGLEWVSTISYNGLYTYYADSVKGRTISRDNSKNTLYLQMNSLRAEDTAVYYCAKYEYSPESDFDYWGQGTLVTVSSA
 |  | 29.1 | 10 | DOM1H-131-206 P14K + C-terminal A (protein, name in Kabat numbering) VH: EVQLLESGGGLVQKGGSLRLSCAASGFTFAHETMVWVRQAPGKGLEWVSHIPPDGQDPFYADSVKGRFTISRDNSKNTLYLQMNSLRAEDTAVYHCALLPKRGPWFDYWGQGTLVTVSSA
 |  | 29.7 | 20 | DOM1H-131-206 P14Q + C-terminal A (protein, name in Kabat numbering) VH: EVQLLESGGGLVQQGGSLRLSCAASGFTFAHETMVWVRQAPGKGLEWVSHIPPDGQDPFYADSVKGRFTISRDNSKNTLYLQMNSLRAEDTAVYHCALLPKRGPWFDYWGQGTLVTVSSA
 |  | 33 | 20 | DOM1H-131-206 P14T + C-terminal A (protein, name in Kabat numbering) VH: EVQLLESGGGLVQTGGSLRLSCAASGFTFAHETMVWVRQAPGKGLEWVSHIPPDGQDPFYADSVKGRFTISRDNSKNTLYLQMNSLRAEDTAVYHCALLPKRGPWFDYWGQGTLVTVSSA
 |  | 17.2 |  | DOM1H-131-206 P14T + C-terminal ASTKG (protein, name in Kabat numbering) VH: EVQLLESGGGLVQTGGSLRLSCAASGFTFAHETMVWVRQAPGKGLEWVSHIPPDGQDPFYADSVKGRFTISRDNSKNTLYLQMNSLRAEDTAVYHCALLPKRGPWFDYWGQGTLVTVSSASTKG
 |  | 21.8 | 10 | DOM1H-131-206 P14Q + C-terminal ASTKG (protein, name in Kabat numbering) VH: EVQLLESGGGLVQQGGSLRLSCAASGFTFAHETMVWVRQAPGKGLEWVSHIPPDGQDPFYADSVKGRFTISRDNSKNTLYLQMNSLRAEDTAVYHCALLPKRGPWFDYWGQGTLVTVSSASTKG
 |  | 25 | 10 | DOM1H-131-206 P14K + C-terminal ASTKG (protein, name in Kabat numbering) VH: EVQLLESGGGLVQKGGSLRLSCAASGFTFAHETMVWVRQAPGKGLEWVSHIPPDGQDPFYADSVKGRFTISRDNSKNTLYLQMNSLRAEDTAVYHCALLPKRGPWFDYWGQGTLVTVSSASTKG
99.2 | 100 |  |  | DOM1H-131-206 Q13A (protein, name in Kabat numbering) VH: EVQLLESGGGLVAPGGSLRLSCAASGFTFAHETMVWVRQAPGKGLEWVSHIPPDGQDPFYADSVKGRFTISRDNSKNTLYLQMNSLRAEDTAVYHCALLPKRGPWFDYWGQGTLVTVSS
 |  | 77.1 | 80 | DOM1H-131-206 S112A (protein, name in Kabat numbering) VH: EVQLLESGGGLVQPGGSLRLSCAASGFTFAHETMVWVRQAPGKGLEWVSHIPPDGQDPFYADSVKGRFTISRDNSKNTLYLQMNSLRAEDTAVYHCALLPKRGPWFDYWGQGTLVTVAS
 |  | 68.9 | 100 | DOM1H-131-206 P14T (protein, name in Kabat numbering) VH: EVQLLESGGGLVQTGGSLRLSCAASGFTFAHETMVWVRQAPGKGLEWVSHIPPDGQDPFYADSVKGRFTISRDNSKNTLYLQMNSLRAEDTAVYHCALLPKRGPWFDYWGQGTLVTVSS
 |  | 46.7 | 50 | DOM1H-131-206 P14K (protein, name in Kabat numbering) VH: EVQLLESGGGLVQKGGSLRLSCAASGFTFAHETMVWVRQAPGKGLEWVSHIPPDGQDPFYADSVKGRFTISRDNSKNTLYLQMNSLRAEDTAVYHCALLPKRGPWFDYWGQGTLVTVSS
 |  | 52.9 | 60 | DOM1H-131-206 P14Q (protein, name in Kabat numbering) VH: EVQLLESGGGLVQQGGSLRLSCAASGFTFAHETMVWVRQAPGKGLEWVSHIPPDGQDPFYADSVKGRFTISRDNSKNTLYLQMNSLRAEDTAVYHCALLPKRGPWFDYWGQGTLVTVSS
 |  | 78.8 | 100 | DOM1H-131-206 T110A (protein, name in Kabat numbering) VH: EVQLLESGGGLVQPGGSLRLSCAASGFTFAHETMVWVRQAPGKGLEWVSHIPPDGQDPFYADSVKGRFTISRDNSKNTLYLQMNSLRAEDTAVYHCALLPKRGPWFDYWGQGTLVAVSS
